± gives the uncertainty stated by the source.
Test: self-splicing fitness, log relative to wild type (ln ratio); higher = more splicing; Tetrahymena group I intron in knt gene, E. coli kanamycin selection, DiMSum; sequences stand for … in CUCUCU…GGAGGGAAAAGUUAUCAGGCAUGCACCUGGUAGCUAGUCUUUAAACCAAUAGAUUGCAUCGGUUUAAAAGGCAAGACCGUCAAAUUGCGGGAAAGGGGUCAACAGCCGUUCAGUACCAAGUCUCAGGGGAAACUUUGAGAUGGCCUUGCAAAGGGUAUGGUAAUAAGCUGACGGACAUGGUCCUAACCACGCAGCCAAGUCCUAAGUCAACAGAUCUUCUGUUGAUAUGGAUGCAGUUCACAGACUAAAUGUCGGUCGGGGAAGAUGUAUUCUUCUCAUAAGAUAUAGUCGGACCUCUCCUUAAUGGGAGCUAGCGGAUGAAGUGAUGCAACACUGGAGCCGCUGGGAACUAAUUUGUAUGCGAAAGUAUAUUGAUUAGUUUUGGAGUACUCGUGGUCG
Summary of the method: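 Library with all eight P1ex-region intron nucleotides randomised, intron inside the knt kanamycin-resistance gene on pET-22b(+), in E. coli BL21(DE3). Cells grew overnight at 37°C or 30°C on LB agar with or without 25 μg/mL kanamycin (plus 100 μg/mL carbenicillin, 50 μM IPTG, 0.2% rhamnose), in six replicate transformations. Pooled colonies were amplicon-sequenced on Illumina HiSeq 2500. DiMSum fitness is the error-weighted combination of wild-type-normalised replicate fold changes, kanamycin versus none.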

Row | Sequence | self-splicing fitness (ln) (30 °C) | self-splicing fitness (ln) (37 °C)
1 | CAUGAGCAAUAUUACGAUAG | -1.55 ± 0.088 | -0.709 ± 0.1
2 | AGUUAGCAAUAUUACGGCGG | -0.53 ± 0.085 | -0.514 ± 0.13
3 | UCUGAGCAAUAUUACGUAAC | -3.44 ± 0.33 | -1.55 ± 0.2
4 | GGAUAGCAAUAUUACGAGCG | -0.76 ± 0.1 | -0.0359 ± 0.088
5 | GCAUAGCAAUAUUACGCCUG | -1.22 ± 0.081 | -1.49 ± 0.1
6 | CGACAGCAAUAUUACGCCGG | -0.394 ± 0.059 | -0.272 ± 0.067
7 | AGAAAGCAAUAUUACGAUCA | 0.101 ± 0.083 | 0.0881 ± 0.11
8 | GGAAAGCAAUAUUACGCGGA | -1.96 ± 0.13 | -0.353 ± 0.1
9 | CGAGAGCAAUAUUACGGGUU | – | -2.27 ± 0.5
10 | GACAAGCAAUAUUACGUUGU | -3.54 ± 0.12 | -2.81 ± 0.14
11 | AGAGAGCAAUAUUACGCAGA | -1.67 ± 0.22 | –
12 | GAUAAGCAAUAUUACGGACU | -0.638 ± 0.07 | -0.289 ± 0.094
13 | GGCGAGCAAUAUUACGGCUG | -0.315 ± 0.15 | -0.389 ± 0.28
14 | CAAGAGCAAUAUUACGUUAC | -2.55 ± 0.12 | -2.71 ± 0.23
15 | CACCAGCAAUAUUACGAUGU | -3.07 ± 0.12 | -0.91 ± 0.085
16 | GAAGAGCAAUAUUACGUUCG | -1.52 ± 0.11 | -0.987 ± 0.14
17 | UUUAAGCAAUAUUACGGCAG | -0.39 ± 0.098 | 0.179 ± 0.15
18 | UGAGAGCAAUAUUACGGAUG | -3.61 ± 0.19 | -3.56 ± 0.29
19 | GGCCAGCAAUAUUACGCGUA | -1.07 ± 0.11 | -0.484 ± 0.1
20 | GUUGAGCAAUAUUACGGAAC | -1.6 ± 0.43 | –
21 | CUAAAGCAAUAUUACGGUAU | -3.53 ± 0.16 | -2.58 ± 0.17
22 | GGACAGCAAUAUUACGCAAU | -0.155 ± 0.13 | 0.311 ± 0.11
23 | AGUAAGCAAUAUUACGACGU | -0.0587 ± 0.09 | -0.132 ± 0.087
24 | CCACAGCAAUAUUACGCCGA | -3.67 ± 0.26 | -2.26 ± 0.17
25 | AUUCAGCAAUAUUACGCAUU | -0.534 ± 0.076 | -0.427 ± 0.095
26 | AUUAAGCAAUAUUACGAUAU | -1.2 ± 0.081 | -0.415 ± 0.096

Row | Sequence | self-splicing fitness (ln) (30 °C) | self-splicing fitness (ln) (37 °C)
27 | CUACAGCAAUAUUACGUCGA | -3.59 ± 0.22 | -3.7 ± 0.3
28 | AGCAAGCAAUAUUACGACGG | -2.35 ± 0.16 | -0.575 ± 0.13
29 | GAGGAGCAAUAUUACGGUGG | -2.76 ± 0.2 | –
30 | CAAGAGCAAUAUUACGAAGU | -3.86 ± 0.34 | -2.3 ± 0.33
31 | CCACAGCAAUAUUACGUUGG | -3.83 ± 0.11 | -2.51 ± 0.13
32 | UAUCAGCAAUAUUACGUACC | -2.13 ± 0.18 | -0.91 ± 0.21
33 | UUGAAGCAAUAUUACGUUUC | -3.35 ± 0.2 | -3.3 ± 0.32
34 | GAAUAGCAAUAUUACGAAUU | -1.78 ± 0.084 | -0.497 ± 0.1
35 | CGGCAGCAAUAUUACGUUUG | -1.58 ± 0.069 | -0.243 ± 0.079
36 | ACGAAGCAAUAUUACGCACC | -0.755 ± 0.16 | -0.0218 ± 0.22
37 | AGCUAGCAAUAUUACGCUAG | -3.02 ± 0.21 | -2.23 ± 0.22
38 | AUCUAGCAAUAUUACGGCAC | -1.5 ± 0.13 | -0.819 ± 0.17
39 | UGACAGCAAUAUUACGUUGA | -1.99 ± 0.094 | -1.9 ± 0.12
40 | ACGUAGCAAUAUUACGGGGU | -4.31 ± 0.3 | -2.51 ± 0.18
41 | CGAGAGCAAUAUUACGGUCC | -2.23 ± 0.23 | –
42 | AACCAGCAAUAUUACGUUGC | -3.21 ± 0.12 | -3.05 ± 0.19
43 | GAGAAGCAAUAUUACGCGAG | -1.75 ± 0.086 | -0.918 ± 0.078
44 | CUUCAGCAAUAUUACGGCUG | -3.75 ± 0.34 | -2.65 ± 0.47
45 | GUCUAGCAAUAUUACGGGUU | -1.92 ± 0.082 | -0.234 ± 0.083
46 | GUGCAGCAAUAUUACGUAAG | 0.0919 ± 0.087 | -0.00974 ± 0.1
47 | AUGCAGCAAUAUUACGAGAU | -3 ± 0.15 | -1.54 ± 0.12
48 | UCACAGCAAUAUUACGCCGG | -0.748 ± 0.13 | 0.108 ± 0.13
49 | GCUGAGCAAUAUUACGGGGG | -2.59 ± 0.2 | -1.8 ± 0.21
50 | UGCCAGCAAUAUUACGGUGG | -3.29 ± 0.13 | -2.97 ± 0.21
51 | GUGAAGCAAUAUUACGUUAG | -1.06 ± 0.098 | 0.151 ± 0.14
52 | AGGAAGCAAUAUUACGUAGC | – | -1.62 ± 0.28

Row | Sequence | self-splicing fitness (ln) (30 °C) | self-splicing fitness (ln) (37 °C)
53 | CGAGAGCAAUAUUACGACAG | -2.82 ± 0.37 | -1.15 ± 0.32
54 | ACAAAGCAAUAUUACGAUCA | -0.675 ± 0.066 | -0.735 ± 0.093
55 | AAUCAGCAAUAUUACGCCUC | -1.12 ± 0.13 | -0.226 ± 0.17
56 | UUUAAGCAAUAUUACGCCAG | -1.08 ± 0.15 | -0.457 ± 0.2
57 | AAACAGCAAUAUUACGAAUA | -2.67 ± 0.14 | -1.1 ± 0.084
58 | AACAAGCAAUAUUACGGGGU | -3.36 ± 0.11 | -2.28 ± 0.13
59 | UUCGAGCAAUAUUACGCCUA | -1.67 ± 0.11 | -1.39 ± 0.097
60 | CGGAAGCAAUAUUACGUUUA | -3.07 ± 0.24 | -2.06 ± 0.17
61 | GUACAGCAAUAUUACGACAG | -3.31 ± 0.24 | -1.94 ± 0.21
62 | GUGGAGCAAUAUUACGUAAC | -0.784 ± 0.18 | -0.991 ± 0.28
63 | CAUGAGCAAUAUUACGCAGG | -3.17 ± 0.19 | -1.51 ± 0.2
64 | GUGCAGCAAUAUUACGACUG | -4.5 ± 0.39 | -2.84 ± 0.28
65 | ACGAAGCAAUAUUACGGACC | -0.399 ± 0.17 | -0.661 ± 0.26
66 | UCAGAGCAAUAUUACGCCGG | -2.92 ± 0.24 | –
67 | CGAUAGCAAUAUUACGUGCA | -2.67 ± 0.15 | -2.13 ± 0.16
68 | UGCGAGCAAUAUUACGCCUG | -3.98 ± 0.22 | -0.862 ± 0.13
69 | CUCCAGCAAUAUUACGUGAC | -3.38 ± 0.15 | -2.98 ± 0.3
70 | CAACAGCAAUAUUACGACCU | -1.18 ± 0.12 | -0.29 ± 0.12
71 | UGAUAGCAAUAUUACGUCCG | -0.219 ± 0.11 | -0.0349 ± 0.13
72 | CCGGAGCAAUAUUACGCGGU | -3.21 ± 0.16 | -2.96 ± 0.23
73 | CAGCAGCAAUAUUACGUGAA | -2.06 ± 0.075 | -0.955 ± 0.09
74 | AUGGAGCAAUAUUACGGGAU | -3.03 ± 0.22 | -0.546 ± 0.19
75 | GGAUAGCAAUAUUACGACGG | – | -2.87 ± 0.48
76 | GAAAAGCAAUAUUACGGGCA | -0.677 ± 0.086 | -0.191 ± 0.093
77 | AUCUAGCAAUAUUACGCGAA | -2 ± 0.24 | -0.373 ± 0.14

— the supplement of paper PMC7877785
